Measurements as given in PMC9958131 (Nature Communications, 2023).

B1: Keratin, type II cuticular Hb5 (protein, UniProt P78386 1-507, looked up)
Keratin, type II cuticular Hb5: MSCRSYRISSGCGVTRNFSSCSAVAPKTGNRCCISAAPYRGVSCYRGLTGFGSRSLCNLGSCGPRIAVGGFRAGSCGRSFGYRSGGVCGPSPPCITTVSVNESLLTPLNLEIDPNAQCVKQEEKEQIKSLNSRFAAFIDKVRFLEQQNKLLETKWQFYQNQRCCESNLEPLFSGYIETLRREAECVEADSGRLASELNHVQEVLEGYKKKYEEEVALRATAENEFVVLKKDVDCAYLRKSDLEANVEALVEESSFLRRLYEEEIRVLQAHISDTSVIVKMDNSRDLNMDCIIAEIKAQYDDVASRSRAEAESWYRSKCEEMKATVIRHGETLRRTKEEINELNRMIQRLTAEIENAKCQRAKLEAAVAEAEQQGEAALSDARCKLAELEGALQKAKQDMACLLKEYQEVMNSKLGLDIEIATYRRLLEGEEHRLCEGVGSVNVCVSSSRGGVSCGGLSYSTTPGRQITSGPSAIGGSITVVAPDSCAPCQPRSSSFSCGSSRSVRFA
B2: Kininogen-1 (protein, UniProt P01042 19-644, looked up)
Kininogen-1: QESQSEEIDCNDKDLFKAVDAALKKYNSQNQSNNQFVLYRITEATKTVGSDTFYSFKYEIKEGDCPVQSGKTWQDCEYKDAAKAATGECTATVGKRSSTKFSVATQTCQITPAEGPVVTAQYDCLGCVHPISTQSPDLEPILRHGIQYFNNNTQHSSLFMLNEVKRAQRQVVAGLNFRITYSIVQTNCSKENFLFLTPDCKSLWNGDTGECTDNAYIDIQLRIASFSQNCDIYPGKDFVQPPTKICVGCPRDIPTNSPELEETLTHTITKLNAENNATFYFKIDNVKKARVQVVAGKKYFIDFVARETTCSKESNEELTESCETKKLGQSLDCNAEVYVVPWEKKIYPTVNCQPLGMISLMKRPPGFSPFRSSRIGEIKEETTVSPPHTSMAPAQDEERDSGKEQGHTRRHDWGHEKQRKHNLGHGHKHERDQGHGHQRGHGLGHGHEQQHGLGHGHKFKLDDDLEHQGGHVLDHGHKHKHGHGHGKHKNKGKKNGKHNGWKTEHLASSSEDSTTPSAQTQEKTEGPTPIPSLAKPGVTVTFSDFQDSDLIATMMPPISPAPIQSDDDWIPDIQIDPNGLSFNPISDFPDTTSPKCPGRPWKSVSEINPTTQMKESYYFDLTDGLS
B3: Carboxypeptidase N subunit 2 (protein, UniProt P22792 22-545, looked up)
Carboxypeptidase N subunit 2: CPMGCDCFVQEVFCSDEELATVPLDIPPYTKNIIFVETSFTTLETRAFGSNPNLTKVVFLNTQLCQFRPDAFGGLPRLEDLEVTGSSFLNLSTNIFSNLTSLGKLTLNFNMLEALPEGLFQHLAALESLHLQGNQLQALPRRLFQPLTHLKTLNLAQNLLAQLPEELFHPLTSLQTLKLSNNALSGLPQGVFGKLGSLQELFLDSNNISELPPQVFSQLFCLERLWLQRNAITHLPLSIFASLGNLTFLSLQWNMLRVLPAGLFAHTPCLVGLSLTHNQLETVAEGTFAHLSNLRSLMLSYNAITHLPAGIFRDLEELVKLYLGSNNLTALHPALFQNLSKLELLSLSKNQLTTLPEGIFDTNYNLFNLALHGNPWQCDCHLAYLFNWLQQYTDRLLNIQTYCAGPAYLKGQVVPALNEKQLVCPVTRDHLGFQVTWPDESKAGGSWDLAVQERAARSQCTYSNPEGTVVLACDQAQCRWLNVQLSPQQGSLGLQYNASQEWDLRSSCGSLRLTVSIEARAAGP
B4: Tubulin beta-4A chain (protein, UniProt P04350 1-444, looked up)
Tubulin beta-4A chain: MREIVHLQAGQCGNQIGAKFWEVISDEHGIDPTGTYHGDSDLQLERINVYYNEATGGNYVPRAVLVDLEPGTMDSVRSGPFGQIFRPDNFVFGQSGAGNNWAKGHYTEGAELVDAVLDVVRKEAESCDCLQGFQLTHSLGGGTGSGMGTLLISKIREEFPDRIMNTFSVVPSPKVSDTVVEPYNATLSVHQLVENTDETYCIDNEALYDICFRTLKLTTPTYGDLNHLVSATMSGVTTCLRFPGQLNADLRKLAVNMVPFPRLHFFMPGFAPLTSRGSQQYRALTVPELTQQMFDAKNMMAACDPRHGRYLTVAAVFRGRMSMKEVDEQMLSVQSKNSSYFVEWIPNNVKTAVCDIPPRGLKMAATFIGNSTAIQELFKRISEQFTAMFRRKAFLHWYTGEGMDEMEFTEAESNMNDLVSEYQQYQDATAEEGEFEEEAEEEVA
B5: Galectin-3-binding protein (protein, UniProt Q08380 19-585, looked up)
Galectin-3-binding protein: VNDGDMRLADGGATNQGRVEIFYRGQWGTVCDNLWDLTDASVVCRALGFENATQALGRAAFGQGSGPIMLDEVQCTGTEASLADCKSLGWLKSNCRHERDAGVVCTNETRSTHTLDLSRELSEALGQIFDSQRGCDLSISVNVQGEDALGFCGHTVILTANLEAQALWKEPGSNVTMSVDAECVPMVRDLLRYFYSRRIDITLSSVKCFHKLASAYGARQLQGYCASLFAILLPQDPSFQMPLDLYAYAVATGDALLEKLCLQFLAWNFEALTQAEAWPSVPTDLLQLLLPRSDLAVPSELALLKAVDTWSWGERASHEEVEGLVEKIRFPMMLPEELFELQFNLSLYWSHEALFQKKTLQALEFHTVPFQLLARYKGLNLTEDTYKPRIYTSPTWSAFVTDSSWSARKSQLVYQSRRGPLVKYSSDYFQAPSDYRYYPYQSFQTPQHPSFLFQDKRVSWSLVYLPTIQSCWNYGFSCSSDELPVLGLTKSGGSDRTIAYENKALMLCEGLFVADVTDFEGWKAAIPSALDTNSSKSTSSFPCPAGHFNGFRTVIRPFYLTNSSGVD
B6: Angiotensinogen (protein, UniProt P01019 25-476, looked up)
Angiotensinogen: DRVYIHPFHLVIHNESTCEQLAKANAGKPKDPTFIPAPIQAKTSPVDEKALQDQLVLVAAKLDTEDKLRAAMVGMLANFLGFRIYGMHSELWGVVHGATVLSPTAVFGTLASLYLGALDHTADRLQAILGVPWKDKNCTSRLDAHKVLSALQAVQGLLVAQGRADSQAQLLLSTVVGVFTAPGLHLKQPFVQGLALYTPVVLPRSLDFTELDVAAEKIDRFMQAVTGWKTGCSLMGASVDSTLAFNTYVHFQGKMKGFSLLAEPQEFWVDNSTSVSVPMLSGMGTFQHWSDIQDNFSVTQVPFTESACLLLIQPHYASDLDKVEGLTFQQNSLNWMKKLSPRTIHLTMPQLVLQGSYDLQDLLAQAELPAILHTELNLQKLSNDRIRVGEVLNSIFFELEADEREPTESTQQLNKPEVLEVTLNRPFLFAVYDQSATALHFLGRVANPLSTA

Tested on: recombinant human PAD2 and PAD4
Experiment: Citrullination site mapping by trypsin digestion and mass spectrometry; protein-level modifications over native, PAD2- and PAD4-citrullinated samples combined
Type: biochemical
Conditions: trypsin digest, Sequest HT search; co-identified proteins in the fibrinogen and vimentin samples (native, PAD2-cit, PAD4-cit); not split by sample or enzyme
Text: Description: Raw mass spectrometry data for proteolytic mapping of fibrinogen, vimentin, and hnRNP A2/B1 by cathepsins B, S, and H (sheets 1-6); citrullination site mapping of fibrinogen and vimentin by trypsin digestion (sheets 7-8); and the natural antigen processing assay with native, PAD2-citrullinated (PAD2-cit), and PAD4-citrullinated (PAD4-cit) fibrinogen (sheets 9-11).

Row | Molecule | Modifications (Deamidated [R...] = citrullinated arginine positions found)
1 | B1 | Deamidated [R142]
2 | B2 | Deamidated [R269; R389; R392]
3 | B3 | Deamidated [R89; R449]
4 | B4 | Deamidated [R2]
5 | B5 | Deamidated [R63; R426; R435; R436; R570]
6 | B6 | Deamidated [R237]
